The text below walks through data of paper PMC7683346.

The test deals with FFAR4-NanoLuc (UniProt Q5NUL3). Put plainly: FRET or BRET.
UniProt Q5NUL3, sequence (Q5NUL3 whole entry): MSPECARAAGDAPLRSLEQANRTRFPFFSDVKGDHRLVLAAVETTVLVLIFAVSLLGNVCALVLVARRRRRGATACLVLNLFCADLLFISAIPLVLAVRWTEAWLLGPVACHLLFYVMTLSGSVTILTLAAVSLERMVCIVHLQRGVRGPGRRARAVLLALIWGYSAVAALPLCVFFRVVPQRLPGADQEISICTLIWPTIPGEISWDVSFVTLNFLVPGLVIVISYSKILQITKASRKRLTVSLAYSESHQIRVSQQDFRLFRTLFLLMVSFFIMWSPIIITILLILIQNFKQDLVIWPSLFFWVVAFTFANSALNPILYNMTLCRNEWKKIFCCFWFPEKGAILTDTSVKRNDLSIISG

The substance Venus-tagged mini-Gαi displayed a fold BRET signal against mini-Gαq of 3 fold.

As to Venus-tagged mini-Gαo, the fold BRET signal against mini-Gαq is 3 fold.
